Columns and labels:
[1] = tested on: single-stranded DNA substrate m3C_FAM; test: Enzymatic demethylation of single-stranded m3C DNA (chemical quenching, HpaII cleavage, PAGE); assay type: biochemical; conditions: for observed rate constant for demethylation, kobs: single exponential fit of product accumulation; for maximum DNA substrate demethylation degree (product yield): 90 min reaction, 2 µM enzyme and m3C_FAM, 40 µM Fe(II), 1 mM 2OG, 25 °C
Protocol: The enzymatic activity of wt ALKBH3 dioxygenase and the Y143F, Y143A, L177A, and H191A mutants was investigated in a reaction with a 15nt single-stranded oligonucleotide substrate containing m3C at the ninth position from the 5’-end (see Section 4).
An enzymatic hydroxylation of a single-strand m3C-containing DNA was studied using a chemical quenching technique recently described for the ALKBH2 dioxygenase in [7]. Briefly, a typical reaction mixture contained an equimolar amount (2 µM) of the protein and FAM-labeled DNA substrate (m3C_FAM) in a buffer consisting of 50 mM of HEPES-KOH (pH 7.8), 50 mM of KCl, 10 mM of MgCl2, 1 mM of 2OG, 2 mM of sodium ascorbate, and 40 µM of (NH4)2Fe(SO4)2·6H2O. An equal volume of 0.2 M NaOH was added to […] of aliquots of the mixture to terminate the reaction at certain time points. After neutralization with HCl and desalting, each of the aliquots was supplemented by the complementary DNA strand and treated with the HpaII restriction endonuclease specific to the repaired sequence (CCGG) according to the manufacturer’s protocol. The resulting reaction product was separated from the substrate using denaturating PAGE and visualized by the Amersham Typhoon Imager (Cytiva, Uppsala, Sweden) (Supplementary Figure S1). Data for the wt, Y143F, and Y143A proteins were converted to mol/L units and then fitted to a single exponent (Equation (1)), where P, P0, and Pmax are amounts of product at any given time, at the zero-time point, and the end time point, respectively; kobs is the observed rate constant. (1) P=P0+Pmax(1−exp−kobst) […]
Figure 2 The catalytic activity of wt and mutant ALKBH3 proteins on single-stranded DNA substrate m3C_FAM. Time courses of the dealkylated product accumulation were obtained at 25 °C by mixing an equimolar amount (2 μM) of enzyme and FAM-labeled DNA substrate dissolved in the reaction buffer containing 40 μM Fe(II) and 1 mM 2OG. Each reaction time point is the mean ± SD of three technical replicates.
Figure S1. PAGE analysis of ALKBH3 repair activity towards the m3C -containing substrate. ALKBH3 at 2 µM was incubated with an equimolar amount of a FA M - labelled single-stranded substrate m3C_FAM. The reaction was quenched at each time point by the addition of an equal volume of 0.2 M NaOH.
(§1) (1 picture or pasted object on this page, not shown here)

[2] = Equilibrium fluorescence titration with Ni(II); assay type: binding; conditions: 1 µM apoprotein, 25 °C; read-out: Dissociation constant Kd, Ni(II)
Source text: To investigate the impact of selected mutations on ALKBH3’s ability to bind its cofactor, co-substrate, and methylated DNA, the fluorescent titration method was employed. It is well-established that enzyme–ligand binding typically leads to a protein conformational change, which in turn can alter the fluorescence intensity of tryptophan and tyrosine residues within the protein sequence. […] In this study, transitional metals (Fe(II), Ni(II), and Co(II)), 2OG, and the m3C substrate served as titrants. Protein fluorescence quenching was measured after the addition of an excess of the ligand to 1 µM of enzyme (Supplementary Figure S2). To determine the equilibrium dissociation constant’s Kd values, the resulting titration curves were analyzed using a non-linear regression algorithm (see Section 4.3 of “Materials and Methods” for details). […] As indicated by the data presented in Table 2, the stability of the wt ALKBH3 apoenzyme’s affinity to various ligands and damaged DNA generally corresponds to the stability of such complexes for AlkB and ALKBH2 enzymes. […] The binding of Ni(II) and Co(II) ions of similar radii was weakened by approximately two-fold. […] This behavior is more characteristic of the bacterial homolog AlkB rather than human ALKBH2 [7].
The intrinsic tryptophan fluorescence quenching was monitored at the maximum of emission (345 nm, in most cases) using an excitation wavelength of 280 nm, and 5 nm slits. An amount of 2 mM of (NH4)2Fe(SO4)2·6H2O, 2 mM of NiSO4×7H2O, 2 mM of CoSO4·7H2O, 2 mM of 2OG, or 100 µM of m3C substrate was titrated into 1 µM of apoprotein (a free enzyme with no metal or 2OG added) in the presence of 50 mM of HEPES-KOH (pH 7.8), 50 mM of KCl, and 10 mM of MgCl2. When titrating with DNA, the buffer was supplemented with 2 mM of EDTA. The dissociation constant Kd for a model of one-step binding (E + L ↔ EL) was determined using Equations (2)–(5) and a non-linear regression algorithm in the OriginPro 8.1 software (OriginLab Corp., Northampton, MA, USA):(2) Kd=E[L]/[EL] (3) F=f0+f1E+f2[EL] (4) e0=E+[EL] (5) l0=L+[EL] where F is the observed fluorescence intensity at any given ligand (L) concentration; f0 is the background fluorescence; f1 and f2 are partial fluorescence intensities of the free enzyme (E) and enzyme–ligand complex (EL), respectively; e0 and l0 are total concentrations of the enzyme and ligand.
Figure S2. Equilibrium binding of the wild-type and mutant ALKBH3 proteins to transition metals, 2OG, or m3C-containing DNA. The quenching of the enzyme ﬂuorescence is shown as a function of Fe(II) (A), Ni(II) (B), Co(II) (C), 2OG ( D), and single-stranded m3C substrate (E). The protein concentration was 1 µM. In the course of titration by Fe(II), a sodium ascorbate (1mM) was added to keep the metal in a reduced state. Experimental data points were ﬁtted to a single-site binding mode l (see “Materials and Methods”). Each trace represents the average of three technical […]
as §1

| Molecule | observed rate constant for demethylation, kobs [1] | Kd [2] | maximum DNA substrate demethylation degree (product yield) [1] |
| --- | --- | --- | --- |
| wt ALKBH3: wild-type human Fe(II)/2OG-dependent dioxygenase ALKBH3 with N-terminal His-tag, expressed in E. coli (protein, UniProt Q96Q83 1-286, looked up, N-terminal His-tag, wild-type human Fe(II)/2OG-dependent dioxygenase ALKBH3 with N-terminal His-tag, expressed in E. coli) Alpha-ketoglutarate-dependent …: MEEKRRRARVQGAWAAPVKSQAIAQPATTAKSHLHQKPGQTWKNKEHHLSDREFVFKEPQQVVRRAPEPRVIDREGVYEISLSPTGVSRVCLYPGFVDVKEADWILEQLCQDVPWKQRTGIREDITYQQPRLTAWYGELPYTYSRITMEPNPHWHPVLRTLKNRIEENTGHTFNSLLCNLYRNEKDSVDWHSDDEPSLGRCPIIASLSFGATRTFEMRKKPPPEENGDYTYVERVKIPLDHGTLLIMEGATQADWQHRVPKEYHSREPRVNLTFRTVYPDPRGAPW | 0.70 ± 0.08 min⁻¹ | 42 ± 4 µM | – |
| L177A ALKBH3: ALKBH3 mutant, Leu177 replaced with Ala (protein, UniProt Q96Q83 1-286, looked up, variant L177A) Alpha-ketoglutarate-dependent …: MEEKRRRARVQGAWAAPVKSQAIAQPATTAKSHLHQKPGQTWKNKEHHLSDREFVFKEPQQVVRRAPEPRVIDREGVYEISLSPTGVSRVCLYPGFVDVKEADWILEQLCQDVPWKQRTGIREDITYQQPRLTAWYGELPYTYSRITMEPNPHWHPVLRTLKNRIEENTGHTFNSLACNLYRNEKDSVDWHSDDEPSLGRCPIIASLSFGATRTFEMRKKPPPEENGDYTYVERVKIPLDHGTLLIMEGATQADWQHRVPKEYHSREPRVNLTFRTVYPDPRGAPW | – | 90 ± 10 µM | ≤ 7% |
| H191A ALKBH3: ALKBH3 mutant, His191 replaced with Ala (protein, UniProt Q96Q83 1-286, looked up, variant H191A) Alpha-ketoglutarate-dependent …: MEEKRRRARVQGAWAAPVKSQAIAQPATTAKSHLHQKPGQTWKNKEHHLSDREFVFKEPQQVVRRAPEPRVIDREGVYEISLSPTGVSRVCLYPGFVDVKEADWILEQLCQDVPWKQRTGIREDITYQQPRLTAWYGELPYTYSRITMEPNPHWHPVLRTLKNRIEENTGHTFNSLLCNLYRNEKDSVDWASDDEPSLGRCPIIASLSFGATRTFEMRKKPPPEENGDYTYVERVKIPLDHGTLLIMEGATQADWQHRVPKEYHSREPRVNLTFRTVYPDPRGAPW | – | 50 ± 4 µM | undetectable |
| Y143F ALKBH3: ALKBH3 mutant, Tyr143 replaced with Phe (protein, UniProt Q96Q83 1-286, looked up, variant Y143F) Alpha-ketoglutarate-dependent …: MEEKRRRARVQGAWAAPVKSQAIAQPATTAKSHLHQKPGQTWKNKEHHLSDREFVFKEPQQVVRRAPEPRVIDREGVYEISLSPTGVSRVCLYPGFVDVKEADWILEQLCQDVPWKQRTGIREDITYQQPRLTAWYGELPYTFSRITMEPNPHWHPVLRTLKNRIEENTGHTFNSLLCNLYRNEKDSVDWHSDDEPSLGRCPIIASLSFGATRTFEMRKKPPPEENGDYTYVERVKIPLDHGTLLIMEGATQADWQHRVPKEYHSREPRVNLTFRTVYPDPRGAPW | 0.17 ± 0.02 min⁻¹ | 42 ± 3 µM | 30% |
| Y143A ALKBH3: ALKBH3 mutant, Tyr143 replaced with Ala (protein, UniProt Q96Q83 1-286, looked up, variant Y143A) Alpha-ketoglutarate-dependent …: MEEKRRRARVQGAWAAPVKSQAIAQPATTAKSHLHQKPGQTWKNKEHHLSDREFVFKEPQQVVRRAPEPRVIDREGVYEISLSPTGVSRVCLYPGFVDVKEADWILEQLCQDVPWKQRTGIREDITYQQPRLTAWYGELPYTASRITMEPNPHWHPVLRTLKNRIEENTGHTFNSLLCNLYRNEKDSVDWHSDDEPSLGRCPIIASLSFGATRTFEMRKKPPPEENGDYTYVERVKIPLDHGTLLIMEGATQADWQHRVPKEYHSREPRVNLTFRTVYPDPRGAPW | – | 60 ± 7 µM | 10% |
